Results published in publication PMC10397247.

T1: O8-AA
T1 chain: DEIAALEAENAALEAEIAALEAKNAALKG

T2: P10-AA
T2 chain: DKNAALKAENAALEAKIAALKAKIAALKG

T3: P9-AA
T3 chain: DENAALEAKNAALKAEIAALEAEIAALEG

T4: 4H2873-AA
T4 chain: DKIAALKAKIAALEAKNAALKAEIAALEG

T5: 4H2985-AA
T5 chain: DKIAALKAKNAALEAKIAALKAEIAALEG

T6: 4H3134-AA
T6 chain: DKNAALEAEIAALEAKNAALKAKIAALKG

T7: 4H3409-AA
T7 chain: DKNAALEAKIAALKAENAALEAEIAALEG

T8: 4H3625-AA
T8 chain: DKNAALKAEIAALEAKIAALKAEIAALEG

T9: 4H390-AA
T9 chain: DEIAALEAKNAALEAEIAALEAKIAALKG

T10: 4H3940-AA
T10 chain: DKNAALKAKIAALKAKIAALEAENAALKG

T11: 4H510-AA
T11 chain: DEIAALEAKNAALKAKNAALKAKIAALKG

T12: 4H775-AA
T12 chain: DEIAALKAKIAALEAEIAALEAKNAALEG

T13: 4H816-AA
T13 chain: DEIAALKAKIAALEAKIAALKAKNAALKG

T14: 4H87-AA
T14 chain: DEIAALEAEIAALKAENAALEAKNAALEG

B1: O8-AA (peptide)
chain: DEIAALEAENAALEAEIAALEAKNAALKG
B2: 4H2873-AA (peptide)
chain: DKIAALKAKIAALEAKNAALKAEIAALEG

Columns and labels:
Test in all cases: two-hybrid library CCmax;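 also: natural log of median RNA to DNA barcode read ratio; higher means stronger binding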
O8-AA = biological target: T1, O8-AA
P10-AA = biological target: T2, P10-AA; details: mean of both orientations
P9-AA = biological target: T3, P9-AA; details: mean of both orientations
4H2873-AA = biological target: T4, 4H2873-AA
4H2985-AA = biological target: T5, 4H2985-AA; details: mean of both orientations
4H3134-AA = biological target: T6, 4H3134-AA; details: mean of both orientations
4H3409-AA = biological target: T7, 4H3409-AA; details: mean of both orientations
4H3625-AA = biological target: T8, 4H3625-AA; details: mean of both orientations
4H390-AA = biological target: T9, 4H390-AA; details: mean of both orientations
4H3940-AA = biological target: T10, 4H3940-AA; details: mean of both orientations
4H510-AA = biological target: T11, 4H510-AA; details: mean of both orientations
4H775-AA = biological target: T12, 4H775-AA; details: mean of both orientations
4H816-AA = biological target: T13, 4H816-AA; details: mean of both orientations
4H87-AA = biological target: T14, 4H87-AA; details: mean of both orientations

Binder	interaction score (O8-AA)	interaction score (P10-AA)	interaction score (P9-AA)	interaction score (4H2873-AA)	interaction score (4H2985-AA)	interaction score (4H3134-AA)	interaction score (4H3409-AA)	interaction score (4H3625-AA)	interaction score (4H390-AA)	interaction score (4H3940-AA)	interaction score (4H510-AA)	interaction score (4H775-AA)	interaction score (4H816-AA)	interaction score (4H87-AA)
B1	-1.16	-0.856	-1.26											
B2				0.429	2.29	1.06	0.324	1.8	2.21	-1.33	-0.174	-0.187	-0.999	0.464
